Patent publication US20240076396A1 (Regeneron, published 2024)

What was measured:
[1] = target: T1, human GITR expressed on the cell surface (human, UniProt Q9Y5U5 26-241); assay: cell-based or functional assay
T1 sequence: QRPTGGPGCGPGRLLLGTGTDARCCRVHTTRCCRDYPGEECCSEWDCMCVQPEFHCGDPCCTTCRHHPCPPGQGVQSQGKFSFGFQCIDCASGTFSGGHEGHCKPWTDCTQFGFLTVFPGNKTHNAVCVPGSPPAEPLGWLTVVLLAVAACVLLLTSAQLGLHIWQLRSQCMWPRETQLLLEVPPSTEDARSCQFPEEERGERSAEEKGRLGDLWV

[2] = target: T1, human GITR expressed on the cell surface; assay: flow cytometry on Jurkat/hCD20/hGITR cells
Procedure: FIG. 5A, FIG. 5B, and FIG. 5C depict cell-surface binding of mAb1 and IgG1 isotype control at a range of concentrations (18 pM to 300 nM) on Jurkat/hCD20 (FIG. 5A), Jurkat/hCD20/hGITR (FIG. 5B), and Jurkat/hCD20/MfGITR (FIG. 5C) cells. Binding was detected using an Alexa647-labeled anti-human IgG by flow cytometry. Fluorescence intensity was plotted as geometric MFI. h, Human; Mf, Macaca fascicularis (cynomolgus monkey).
(§1) Flow cytometry was used to evaluate mAb1 binding to Jurkat/hCD20/hGITR cells and Jurkat/hCD20/MfGITR cells. Jurkat/hCD20 cells were used as a negative control cell line for GITR binding. Cells were added to a 96-well V-bottom plate (2×10⁵ to 4×10⁵ cells/well) and incubated in Fc block solution, followed by successive incubation on ice with primary antibody (mAb1 or IgG1 isotype control) at final concentrations ranging from 18 pM to 300 nM and a secondary antibody (AF647-conjugated anti-human IgG) at 5 μg/mL. […] Data were analyzed with Flow.lo software. For EC₅₀ (effective concentration at 50% activity) determinations, measured geometric MFI values were analyzed using a 4-parameter logistic equation over a 9-point response curve with GraphPad Prism. The fold binding was determined by taking the ratio of the highest MFI on the curve to the MFI of the wells containing secondary antibody only.

[3] = target: T2, cynomolgus monkey GITR expressed on the cell surface (Macaca fascicularis (cynomolgus monkey)); assay: flow cytometry on Jurkat/hCD20/MfGITR cells; max MFI over secondary antibody alone
T2 construct: whole, on cells; also called MfGITR; Jurkat/hCD20/MfGITR cells
Procedure: as §1, with “μg/mL. Cells were then stained with LIVE/DEAD Fixable Green Dead Cell Stain according to the manufacturer's instructions.” for “μg/mL.”
^a The maximum MFI was the highest mean MFI value within the concentration range tested (18 pM to 300 nM). ^b Fold binding was calculated as the maximum MFI above background (secondary antibody alone). h, Human; Mf, Macaca fascicularis (cynomolgus monkey); ND, Not determined because concentration-dependent binding was not observed

[4] = target: T2, cynomolgus monkey GITR expressed on the …; assay: flow cytometry, AF647-conjugated antibody on CD4+ CD69+ cynomolgus monkey primary T cells, donor 58945
Procedure: (§2) FIG. 7 depicts antibody binding to CD69+ cynomolgus monkey primary T-cells. Primary cynomolgus monkey T-cells from 4 separate donors were stimulated in vitro with anti-CD2/anti-CD3/anti-CD28-coated beads. Cell-surface binding of AF647-conjugated mAb1 and AF647-conjugated IgG1 isotype control at a range of concentrations (8 pM to 200 nM) on CD69⁺ and CD69⁻ cynomolgus monkey primary CD4⁺ and CD8⁺ T-cells was detected using flow cytometry. Fluorescence intensity was plotted as geometric MFI. Mf, Macaca fascicularis (cynomolgus monkey)
(§3) Peripheral blood mononuclear cells (PBMC) were isolated from human or cynomolgus monkey whole blood (4 donors each) using density centrifugation through Ficoll-Paque PLUS in SepMate tubes (for human PBMC) or 50 mL conical tubes (for cynomolgus monkey PBMC) and transferred to a fresh conical tube for incubation in Red Blood Cell (RBC) Lysis Buffer. […] After 4 days, activation beads were removed from the culture using a MACSiMAG Separator, and cells were collected and counted.
(§4) Flow cytometry was used to evaluate mAb1 binding to human or cynomolgus monkey T-cells in activated PBMC. […] Data were analyzed with Flowio software. For EC₅₀ determinations, measured geometric MFI values were analyzed using a 4-parameter logistic equation over a 12-point response curve with GraphPad Prism.

[5] = target: T2, cynomolgus monkey GITR expressed on the …; assay: flow cytometry, AF647-conjugated antibody on CD4+ CD69+ cynomolgus monkey primary T cells, donor 58947
Procedure: as §2, §3, §4

B1: mAb1 (antibody, human IgG1, kappa, V domains shown)
VH: QVQLQESGPGLVKPSETLSLTCIVSGGSISGYFWNWIRQPPGKGLEWIGYIYYSGTTIYNPSLKSRFTISLDTSKNQFSLKLTSVTAADTAVYYCARESYDPSPRYFDHWGQGTLVTVSS
VL: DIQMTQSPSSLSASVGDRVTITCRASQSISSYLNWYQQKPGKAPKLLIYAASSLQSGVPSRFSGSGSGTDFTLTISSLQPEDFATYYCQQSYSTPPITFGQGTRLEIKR
notes: Human IgG1; N101D variant of CompAb1; also called N101D Variant; N101D
EC50, ADCC against human primary CD8+ T-cells Donor 0200R, NK Donor 05001 [1]: 0.139 nM
EC50, ADCC against human primary CD8+ T-cells Donor 0400N, NK Donor 04003 [1]: 0.0764 nM
EC50, ADCC against human primary CD8+ T-cells Donor 0400N, NK Donor 05001 [1]: 0.116 nM
EC50, ADCC against human primary CD8+ T-cells Donor 5100X, NK Donor 04003 [1]: 0.128 nM
EC50, ADCC against human primary CD8+ T-cells Donor 5100X, NK Donor 05001 [1]: 0.0951 nM
EC50, ADCC against human primary Tregs Donor 0200R, NK Donor 04003 [1]: 0.0399 nM
EC50, ADCC against human primary Tregs Donor 0200R, NK Donor 05001 [1]: 0.0647 nM
EC50, ADCC against human primary Tregs Donor 0400N, NK Donor 04003 [1]: 0.0372 nM
EC50, ADCC against human primary Tregs Donor 0400N, NK Donor 05001 [1]: 0.0449 nM
EC50, ADCC against human primary Tregs Donor 5100X, NK Donor 04003 [1]: 0.0888 nM
EC50, ADCC against human primary Tregs Donor 5100X, NK Donor 05001 [1]: 0.0834 nM
EC50 [2]: 1.96 nM
Fold Binding [3]: 277 fold
EC50 (read off the curve) [4]: ~4 nM
EC50 (read off the curve) [5]: ~3 nM
